B1: NAD-dependent protein deacetylase sirtuin-1 (Mus musculus), Q923E4 (parent)
chain: MADEVALALQAAGSPSAAAAMEAASQPADEPLRKRPRRDGPGLGRSPGEPSAAVAPAAAGCEAASAAAPAALWREAAGAAASAEREAPATAVAGDGDNGSGLRREPRAADDFDDDEGEEEDEAAAAAAAAAIGYRDNLLLTDGLLTNGFHSCESDDDDRTSHASSSDWTPRPRIGPYTFVQQHLMIGTDPRTILKDLLPETIPPPELDDMTLWQIVINILSEPPKRKKRKDINTIEDAVKLLQECKKIIVLTGAGVSVSCGIPDFRSRDGIYARLAVDFPDLPDPQAMFDIEYFRKDPRPFFKFAKEIYPGQFQPSLCHKFIALSDKEGKLLRNYTQNIDTLEQVAGIQRILQCHGSFATASCLICKYKVDCEAVRGDIFNQVVPRCPRCPADEPLAIMKPEIVFFGENLPEQFHRAMKYDKDEVDLLIVIGSSLKVRPVALIPSSIPHEVPQILINREPLPHLHFDVELLGDCDVIINELCHRLGGEYAKLCCNPVKLSEITEKPPRPQKELVHLSELPPTPLHISEDSSSPERTVPQDSSVIATLVDQATNNNVNDLEVSESSCVEEKPQEVQTSRNVENINVENPDFKAVGSSTADKNERTSVAETVRKCWPNRLAKEQISKRLEGNQYLFVPPNRYIFHGAEVYSDSEDDVLSSSSCGSNSDSGTCQSPSLEEPLEDESEIEEFYNGLEDDTERPECAGGSGFGADGGDQEVVNEAIATRQELTDVNYPSDKS
partner: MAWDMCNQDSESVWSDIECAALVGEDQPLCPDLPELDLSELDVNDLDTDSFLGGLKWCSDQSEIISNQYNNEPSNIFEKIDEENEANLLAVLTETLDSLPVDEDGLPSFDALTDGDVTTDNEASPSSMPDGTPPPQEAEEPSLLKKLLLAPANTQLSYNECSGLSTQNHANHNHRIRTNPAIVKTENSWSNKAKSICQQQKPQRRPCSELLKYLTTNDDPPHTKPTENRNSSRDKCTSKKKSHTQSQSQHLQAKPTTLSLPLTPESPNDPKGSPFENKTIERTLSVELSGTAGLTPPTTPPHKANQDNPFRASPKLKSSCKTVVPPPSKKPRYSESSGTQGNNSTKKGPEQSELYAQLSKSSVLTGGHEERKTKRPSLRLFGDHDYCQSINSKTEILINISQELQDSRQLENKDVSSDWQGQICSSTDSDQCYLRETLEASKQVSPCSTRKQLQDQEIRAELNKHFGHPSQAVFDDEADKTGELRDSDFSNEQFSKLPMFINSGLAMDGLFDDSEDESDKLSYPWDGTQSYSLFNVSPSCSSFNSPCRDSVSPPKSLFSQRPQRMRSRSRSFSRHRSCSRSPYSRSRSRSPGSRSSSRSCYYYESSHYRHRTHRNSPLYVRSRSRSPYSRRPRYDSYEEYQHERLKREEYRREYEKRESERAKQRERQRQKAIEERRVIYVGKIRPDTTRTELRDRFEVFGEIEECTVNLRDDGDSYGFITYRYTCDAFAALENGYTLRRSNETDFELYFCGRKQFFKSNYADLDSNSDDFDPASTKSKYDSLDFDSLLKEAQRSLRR

Variants of: B1
Conditions: with prgc1_human PPARGC1A

effect of a mutation on the interaction | Variant
decreasing interaction | H355A

— IntAct's records for PubMed 15744310
